Patent publication US20250136717A1 (BYONDIS B V, published 2025)
Where two headings read alike, the source gives them in different places.

What was measured:
[1] = biological target: T1, Protein A (Protein A sensor tips, Forte Bio, 18-5012) (UniProt P38507 37-327); assay: BLI, Protein A tips
T1 construct: used to correct for the concentration of the antibody samples
Description: (§1) To correct for differences in concentration between the analyte stocks, Protein A binding was estimated for the same samples.
(§2) The 70s report point corresponds to 10s of association, since a baseline is created in the first 60 seconds.

[2] = biological target: T2, Biotinylated Human EpCAM/TROP1 Protein, Avitag His tag, Cat. No. EPM-H82E8 (human, UniProt P16422 24-265, biotinylated); assay: BLI, EpCAM on SAX tips
T2 construct: immobilized on SAX biosensor tips
T2 sequence (looked up): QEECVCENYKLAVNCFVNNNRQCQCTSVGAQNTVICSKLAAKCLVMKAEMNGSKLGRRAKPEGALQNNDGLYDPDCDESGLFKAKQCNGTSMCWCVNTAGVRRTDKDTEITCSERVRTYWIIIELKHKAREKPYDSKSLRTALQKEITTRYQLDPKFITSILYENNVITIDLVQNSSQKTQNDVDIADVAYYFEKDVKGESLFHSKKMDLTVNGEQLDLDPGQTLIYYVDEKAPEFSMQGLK
Description: as §1, §2

[3] = biological target: T2, Biotinylated Human EpCAM/TROP1 Protein, …; assay: BLI, EpCAM signal over Protein A signal
Description: as §1, §2

[4] = biological target: T1, Protein A (Protein A sensor tips, Forte …); assay: BLI, Protein A tips; remark: listed apart in the source
Description: as §1, §2

[5] = biological target: T3, Biotinylated Human TROP2/TACSTD2 Protein, His Avitag, Cat. No. TR2-H82E5 (human, UniProt P09758 27-274, biotinylated); assay: BLI, TROP2 on SAX tips
T3 construct: immobilized on SAX biosensor tips
T3 sequence (looked up): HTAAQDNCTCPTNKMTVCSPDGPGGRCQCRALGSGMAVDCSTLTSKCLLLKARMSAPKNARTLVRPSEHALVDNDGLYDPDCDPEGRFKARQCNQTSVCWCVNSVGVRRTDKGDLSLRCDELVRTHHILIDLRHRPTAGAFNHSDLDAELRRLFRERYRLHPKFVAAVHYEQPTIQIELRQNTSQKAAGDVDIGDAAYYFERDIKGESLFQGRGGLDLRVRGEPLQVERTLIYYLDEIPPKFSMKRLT
Description: as §1, §2

[6] = biological target: T3, Biotinylated Human TROP2/TACSTD2 …; assay: BLI, TROP2 signal over Protein A signal
Description: as §1, §2

[7] = biological target: T1, Protein A (Protein A sensor tips, Forte …); assay: BLI, Protein A tips; remark: listed apart in the source
Description: as §1

[8] = biological target: T1, Protein A (Protein A sensor tips, Forte …); assay: BLI, Protein A tips; remark: listed apart in the source
Description: as §1, §2

[9] = biological target: T2, Biotinylated Human EpCAM/TROP1 Protein, …; assay: BLI, EpCAM signal over Protein A signal; remark: listed apart in the source
Description: as §1, §2

[10] = biological target: T2, Biotinylated Human EpCAM/TROP1 Protein, …; assay: BLI, EpCAM on SAX tips; remark: listed apart in the source
Description: as §1, §2

B1: S301 (antibody, human IgG1, kappa)
heavy: not shown
light: QVQLVESGGGLVQPGGSLTLSCTASGFTLDHYDIGWFRQAPGKEREGVSCINNSDDDTYYADSVKGRFTIFMNNAKDTVYLQMNSLKPEDTAIYYCAEARGCKRGRYEYDFWGQGTQVTVSSGGGGSPLGLAGGGSDIVMTQSALSNPVTLGESGSISCRSSKSLLHSNGITYLYWYLQKPGQSPQLLIYQMSNRASGVPDRFSSSGSGTDFTLKISRVEAEDVGVYYCAQNLELPRTFGQGTKLEMKRTVAAPSVFIFPPSDEQLKSGTASVVCLLNNFYPREAKVQWKVDNALQSGNSQESVTEQDSKDSTYSLSSTLTLSKADYEKHKVYACEVTHQGLSSPVTKSFNRGEC
notes: also called masked ING-1 Qg-BC2T-L9-HC / BC2-Nb-L9-LC
Protein A binding after 10 s of association [1]: 0.541 nm
EpCAM binding after 10 s of association [2]: 0.074 nm
EpCAM/Protein A * 1000 [3]: 137

B2: S302 (antibody, human IgG1, kappa)
heavy: not shown
light: QVQLVESGGGLVQPGGSLTLSCTASGFTLDHYDIGWFRQAPGKEREGVSCINNSDDDTYYADSVKGRFTIFMNNAKDTVYLQMNSLKPEDTAIYYCAEARGCKRGRYEYDFWGQGTQVTVSSGGGGSPLGLAGGGSDIVMTQSALSNPVTLGESGSISCRSSKSLLHSNGITYLYWYLQKPGQSPQLLIYQMSNRASGVPDRFSSSGSGTDFTLKISRVEAEDVGVYYCAQNLELPRTFGQGTKLEMKRTVAAPSVFIFPPSDEQLKSGTASVVCLLNNFYPREAKVQWKVDNALQSGNSQESVTEQDSKDSTYSLSSTLTLSKADYEKHKVYACEVTHQGLSSPVTKSFNRGEC
notes: also called masked P41C ING-1 Qg-BC2T-L9-HC (P41C) / BC2-Nb-L9-LC
Protein A binding after 10 s of association [1]: 0.275 nm
EpCAM binding after 10 s of association [2]: 0.0354 nm
EpCAM/Protein A * 1000 [3]: 129

B3: S306 (antibody, human IgG1, kappa)
heavy: not shown
light: DIQLTQSPSSLSASVGDRVSITCKASQDVSIAVAWYQQKPGKAPKLLIYSASYRYTGVPDRFSGSGSGTDFTLTISSLQPEDFAVYYCQQHYITPLTFGAGTKVEIKRTVAAPSVFIFPPSDEQLKSGTASVVCLLNNFYPREAKVQWKVDNALQSGNSQESVTEQDSKDSTYSLSSTLTLSKADYEKHKVYACEVTHQGLSSPVTKSFNRGEC
notes: also called Anti-TROP2 sacituzumab hRS7 (naked)
Protein A binding after 10 s of association [4]: 0.915 nm
TROP2 binding after 10 s of association [5]: 0.749 nm
TROP2/Protein A * 1000 [6]: 818

B4: S309 (antibody, human IgG1, kappa)
heavy: not shown
light: DIQMTQSPSSLSASVGDRVTITCKASQDIRKYLNWYQQKPGKAPKLLIYYATSLADGVPSRFSGSGSGTDYTFTISSLQPEDIATYYCLQHGESPYTFGQGTKLEITRTVAAPSVFIFPPSDEQLKSGTASVVCLLNNFYPREAKVQWKVDNALQSGNSQESVTEQDSKDSTYSLSSTLTLSKADYEKHKVYACEVTHQGLSSPVTKSFNRGEC
notes: also called Anti-TF MORAb-066, CNT0860 (naked)
Protein A binding after 10 s of association [7]: 1.79 nm

B5: S304 (antibody, human IgG1, kappa)
heavy: not shown
light: QVQLVESGGGLVQPGGSLTLSCTASGFTLDHYDIGWFRQAPGKEREGVSCINNSDDDTYYADSVKGRFTIFMNNAKDTVYLQMNSLKPEDTAIYYCAEARGCKRGRYEYDFWGQGTQVTVSSGGGGSPLGLAGGGSELQMTQSPSSLSASVGDRVTITCRTSQSISSYLNWYQQKPGQPPKLLIYWASTRESGVPDRFSGSGSGTDFTLTISSLQPEDSATYYCQQSYDIPYTFGQGTKLEIKRTVAAPSVFIFPPSDEQLKSGTASVVCLLNNFYPREAKVQWKVDNALQSGNSQESVTEQDSKDSTYSLSSTLTLSKADYEKHKVYACEVTHQGLSSPVTKSFNRGEC
notes: also called masked adecatumumab Qg-BC2T-L9-HC / BC2-Nb-L9-LC
Protein A binding after 10 s of association [8]: 1.35 nm
EpCAM/Protein A * 1000 [9]: 18.3
EpCAM binding after 10 s of association [10]: 0.0247 nm

B6: S305 (antibody, human IgG1, kappa)
heavy: not shown
light: QVQLVESGGGLVQPGGSLTLSCTASGFTLDHYDIGWFRQAPGKEREGVSCINNSDDDTYYADSVKGRFTIFMNNAKDTVYLQMNSLKPEDTAIYYCAEARGCKRGRYEYDFWGQGTQVTVSSGGGGSPLGLAGGGSELQMTQSPSSLSASVGDRVTITCRTSQSISSYLNWYQQKPGQPPKLLIYWASTRESGVPDRFSGSGSGTDFTLTISSLQPEDSATYYCQQSYDIPYTFGQGTKLEIKRTVAAPSVFIFPPSDEQLKSGTASVVCLLNNFYPREAKVQWKVDNALQSGNSQESVTEQDSKDSTYSLSSTLTLSKADYEKHKVYACEVTHQGLSSPVTKSFNRGEC
notes: also called masked P41C adecatumumab Qg-BC2T-L9-HC (P41C) / BC2-Nb-L9-LC
Protein A binding after 10 s of association [8]: 1.31 nm
EpCAM/Protein A * 1000 [9]: 14.5
EpCAM binding after 10 s of association [10]: 0.0189 nm

B7: S300 (antibody, human IgG1, kappa)
heavy: not shown
light: DIVMTQSALSNPVTLGESGSISCRSSKSLLHSNGITYLYWYLQKPGQSPQLLIYQMSNRASGVPDRFSSSGSGTDFTLKISRVEAEDVGVYYCAQNLELPRTFGQGTKLEMKRTVAAPSVFIFPPSDEQLKSGTASVVCLLNNFYPREAKVQWKVDNALQSGNSQESVTEQDSKDSTYSLSSTLTLSKADYEKHKVYACEVTHQGLSSPVTKSFNRGEC
notes: also called Anti-EpCAM ING-1 (naked)
Protein A binding after 10 s of association [1]: 0.95 nm
EpCAM binding after 10 s of association [2]: 0.947 nm
EpCAM/Protein A * 1000 [3]: 997

B8: S303 (antibody, human IgG1, kappa)
heavy: not shown
light: ELQMTQSPSSLSASVGDRVTITCRTSQSISSYLNWYQQKPGQPPKLLIYWASTRESGVPDRFSGSGSGTDFTLTISSLQPEDSATYYCQQSYDIPYTFGQGTKLEIKRTVAAPSVFIFPPSDEQLKSGTASVVCLLNNFYPREAKVQWKVDNALQSGNSQESVTEQDSKDSTYSLSSTLTLSKADYEKHKVYACEVTHQGLSSPVTKSFNRGEC
notes: also called Anti-EpCAM adecatumumab (MT-201) (naked)
Protein A binding after 10 s of association [8]: 3.09 nm
EpCAM/Protein A * 1000 [9]: 599
EpCAM binding after 10 s of association [10]: 1.85 nm

B9: S310 (antibody, human IgG1, kappa)
heavy: not shown
light: QVQLVESGGGLVQPGGSLTLSCTASGFTLDHYDIGWFRQAPGKEREGVSCINNSDDDTYYADSVKGRFTIFMNNAKDTVYLQMNSLKPEDTAIYYCAEARGCKRGRYEYDFWGQGTQVTVSSGGGGSPLGLAGGGSDIQMTQSPSSLSASVGDRVTITCKASQDIRKYLNWYQQKPGKAPKLLIYYATSLADGVPSRFSGSGSGTDYTFTISSLQPEDIATYYCLQHGESPYTFGQGTKLEITRTVAAPSVFIFPPSDEQLKSGTASVVCLLNNFYPREAKVQWKVDNALQSGNSQESVTEQDSKDSTYSLSSTLTLSKADYEKHKVYACEVTHQGLSSPVTKSFNRGEC
notes: also called masked MORAb-066 Qg-BC2T-L9-HC / BC2-Nb-L9-LC
Protein A binding after 10 s of association [7]: 0.993 nm

B10: S311 (antibody, human IgG1, kappa)
heavy: not shown
light: QVQLVESGGGLVQPGGSLTLSCTASGFTLDHYDIGWFRQAPGKEREGVSCINNSDDDTYYADSVKGRFTIFMNNAKDTVYLQMNSLKPEDTAIYYCAEARGCKRGRYEYDFWGQGTQVTVSSGGGGSPLGLAGGGSDIQMTQSPSSLSASVGDRVTITCKASQDIRKYLNWYQQKPGKAPKLLIYYATSLADGVPSRFSGSGSGTDYTFTISSLQPEDIATYYCLQHGESPYTFGQGTKLEITRTVAAPSVFIFPPSDEQLKSGTASVVCLLNNFYPREAKVQWKVDNALQSGNSQESVTEQDSKDSTYSLSSTLTLSKADYEKHKVYACEVTHQGLSSPVTKSFNRGEC
notes: also called masked P41C MORAb-066 Qg-BC2T-L9-HC (P41C) / BC2-Nb-L9-LC
Protein A binding after 10 s of association [7]: 1.33 nm

B11: S307 (antibody, human IgG1, kappa)
heavy: not shown
light: QVQLVESGGGLVQPGGSLTLSCTASGFTLDHYDIGWFRQAPGKEREGVSCINNSDDDTYYADSVKGRFTIFMNNAKDTVYLQMNSLKPEDTAIYYCAEARGCKRGRYEYDFWGQGTQVTVSSGGGGSPLGLAGGGSDIQLTQSPSSLSASVGDRVSITCKASQDVSIAVAWYQQKPGKAPKLLIYSASYRYTGVPDRFSGSGSGTDFTLTISSLQPEDFAVYYCQQHYITPLTFGAGTKVEIKRTVAAPSVFIFPPSDEQLKSGTASVVCLLNNFYPREAKVQWKVDNALQSGNSQESVTEQDSKDSTYSLSSTLTLSKADYEKHKVYACEVTHQGLSSPVTKSFNRGEC
notes: also called masked sacituzumab Qg-BC2T-L9-HC / BC2-Nb-L9-LC
Protein A binding after 10 s of association [4]: 1.11 nm
TROP2 binding after 10 s of association [5]: 0.0345 nm
TROP2/Protein A * 1000 [6]: 31.1

B12: S308 (antibody, human IgG1, kappa)
heavy: not shown
light: QVQLVESGGGLVQPGGSLTLSCTASGFTLDHYDIGWFRQAPGKEREGVSCINNSDDDTYYADSVKGRFTIFMNNAKDTVYLQMNSLKPEDTAIYYCAEARGCKRGRYEYDFWGQGTQVTVSSGGGGSPLGLAGGGSDIQLTQSPSSLSASVGDRVSITCKASQDVSIAVAWYQQKPGKAPKLLIYSASYRYTGVPDRFSGSGSGTDFTLTISSLQPEDFAVYYCQQHYITPLTFGAGTKVEIKRTVAAPSVFIFPPSDEQLKSGTASVVCLLNNFYPREAKVQWKVDNALQSGNSQESVTEQDSKDSTYSLSSTLTLSKADYEKHKVYACEVTHQGLSSPVTKSFNRGEC
notes: also called masked P41C sacituzumab Qg-BC2T-L9-HC (P41C) / BC2-Nb-L9-LC
Protein A binding after 10 s of association [4]: 0.646 nm
TROP2 binding after 10 s of association [5]: 0.0154 nm
TROP2/Protein A * 1000 [6]: 23.8
